According to the supplement of paper PMC6757056:
± gives the standard deviation of the averaged measurements.

B1: library; a variant is named by its letters at N, in order (parent)
chain: GCUGUCACCGAGAAACUGUGAAGUAUAUCUUAAACCUGGGCACUUAAAAGAUAUAUGGAGUUAGUAGUGCAACCUGCUCGGUCUGAUGAGUCCNNNNNNGGACGAAACAGC

Legend:
[1] = variants of: B1; experiment: normalized RNA/DNA level without ligand (relative to sTRSVctl = 100) (log10 (% of sTRSVctl)); HEK293T; ligand: cyclic di-GMP (c-di-GMP-II aptamer); higher = less ribozyme self-cleavage, higher mRNA level; conditions: reporter: mCherry (pCS4076), ligand present: no
Outline: (§1)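 For each 6-well well, 4 µg of library plasmid encoding mCherry-linked ribozyme switches, or eGFP-linked ones in some ligand experiments, was transfected into HEK293T. Any ligand was added 1 h before transfection, and RNA was extracted with EDTA 72 h after it, then reverse-transcribed, amplified, barcoded and sequenced. RNA level was obtained by dividing RNA reads by DNA reads, normalizing to a spiked-in non-cleaving sequence or to the top sequences, then scaling and log-transforming. The top set was 25 sequences, scaling was ×100 with log10, and ≥100 DNA reads were required.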

[2] = variants of: B1; experiment: normalized RNA/DNA level with ligand (relative to sTRSVctl = 100) (log10 (% of sTRSVctl)); HEK293T; ligand: cyclic di-GMP (c-di-GMP-II aptamer); ligand concentration (+) RNA-Seq: 1 mM; higher = less ribozyme self-cleavage, higher mRNA level; conditions: reporter: mCherry (pCS4076), ligand present: yes
Outline: as §1

Variant	normalized RNA/DNA level without ligand (log10) [1]	normalized RNA/DNA level with ligand (log10) [2]
GUGUUU	1.72 ± 0.023	1.9 ± 0.092
UUGGCA	1.76 ± 0.035	1.83 ± 0.037
UUGGCC	1.81 ± 0.031	1.88 ± 0.097
UUGGCG	1.85 ± 0.022	1.94 ± 0.11
CUUGAU	1.66 ± 0.023	1.82 ± 0.13
CUUGAG	1.68 ± 0.017	1.79 ± 0.09
AUUAAC	1.655 ± 0.015	1.76 ± 0.15
AUUAAU	1.674 ± 0.015	1.8 ± 0.12
AUUAAG	1.55 ± 0.041	1.75 ± 0.14
CUUCUU	1.5858 ± 0.00043	1.75 ± 0.2
CUUCUG	1.78 ± 0.061	1.85 ± 0.057
CUUCUC	1.77 ± 0.049	1.86 ± 0.14
CUGGGC	1.733 ± 0.0023	1.88 ± 0.09
CUGGGA	1.55 ± 0.09	1.74 ± 0.093
CUGGGG	1.648 ± 0.0018	1.83 ± 0.19
CUGGGU	1.71 ± 0.033	1.85 ± 0.13
AUGGUC	1.67 ± 0.018	1.81 ± 0.1
AUGGUU	1.46 ± 0.03	1.68 ± 0.1
UUGUAC	1.74 ± 0.089	1.85 ± 0.18

Variant	normalized RNA/DNA level without ligand (log10) [1]	normalized RNA/DNA level with ligand (log10) [2]
UUGUAA	1.685 ± 0.015	1.86 ± 0.15
AUUCCU	1.74 ± 0.044	1.86 ± 0.1
AUUCCG	1.75 ± 0.021	1.84 ± 0.078
AUUCGA	1.58 ± 0.023	1.71 ± 0.066
AUUCGU	1.79 ± 0.024	1.86 ± 0.12
UUUGAC	1.71 ± 0.03	1.87 ± 0.11
UUUGAU	1.649 ± 0.014	1.82 ± 0.12
UUUGAA	1.59 ± 0.017	1.76 ± 0.1
UUUGAG	1.71 ± 0.038	1.83 ± 0.12
UUUAGA	1.716 ± 0.011	1.87 ± 0.086
UUUAGG	1.87 ± 0.057	1.96 ± 0.14
UUUAGC	1.76 ± 0.054	1.86 ± 0.14
AUGUAA	1.54 ± 0.078	1.68 ± 0.14
AUGUAG	1.59 ± 0.017	1.77 ± 0.11
AUGUGA	1.44 ± 0.082	1.65 ± 0.11
AUGUGC	1.6033 ± 0.00051	1.77 ± 0.14
AUGUGG	1.59 ± 0.051	1.72 ± 0.081
CUUAAC	1.679 ± 0.014	1.8 ± 0.079
CUUAAG	1.69 ± 0.05	1.89 ± 0.079

Variant	normalized RNA/DNA level without ligand (log10) [1]	normalized RNA/DNA level with ligand (log10) [2]
GUUGAA	1.44 ± 0.083	1.65 ± 0.12
GUUGAU	1.61 ± 0.033	1.76 ± 0.14
GUGUGU	1.595 ± 0.003	1.77 ± 0.12
GUGUGA	1.41 ± 0.11	1.67 ± 0.084
GUGUGG	1.74 ± 0.041	1.86 ± 0.11
UUGGAC	1.665 ± 0.0078	1.78 ± 0.08
UUGGAG	1.6 ± 0.037	1.71 ± 0.066
UUGGAU	1.63 ± 0.032	1.83 ± 0.1
GUGUCG	1.685 ± 0.012	1.79 ± 0.11
GUGUCA	1.75 ± 0.027	1.85 ± 0.11
GUGUCC	1.77 ± 0.045	1.86 ± 0.094
GUGUCU	1.72 ± 0.031	1.84 ± 0.13
CUUCCU	1.64 ± 0.025	1.8 ± 0.084
CUUCCA	1.61 ± 0.089	1.78 ± 0.085
CUUCCC	1.8 ± 0.024	1.88 ± 0.14
CUUCCG	1.761 ± 0.017	1.89 ± 0.1
GUGGGC	1.44 ± 0.058	1.68 ± 0.13
GUGGGG	1.65 ± 0.021	1.8 ± 0.14
GUGGGU	1.66 ± 0.081	1.85 ± 0.064
